Values of other authors as cited in paper PMC9221429.

Assays:
B-Raf (Homo sapiens) = B-Raf (Homo sapiens) (UniProt P15056)
[1] = biological target: B-Raf V600E (Homo sapiens) (UniProt P15056)
Chain of B-Raf V600E (Homo sapiens) (P15056 2-766 V600E): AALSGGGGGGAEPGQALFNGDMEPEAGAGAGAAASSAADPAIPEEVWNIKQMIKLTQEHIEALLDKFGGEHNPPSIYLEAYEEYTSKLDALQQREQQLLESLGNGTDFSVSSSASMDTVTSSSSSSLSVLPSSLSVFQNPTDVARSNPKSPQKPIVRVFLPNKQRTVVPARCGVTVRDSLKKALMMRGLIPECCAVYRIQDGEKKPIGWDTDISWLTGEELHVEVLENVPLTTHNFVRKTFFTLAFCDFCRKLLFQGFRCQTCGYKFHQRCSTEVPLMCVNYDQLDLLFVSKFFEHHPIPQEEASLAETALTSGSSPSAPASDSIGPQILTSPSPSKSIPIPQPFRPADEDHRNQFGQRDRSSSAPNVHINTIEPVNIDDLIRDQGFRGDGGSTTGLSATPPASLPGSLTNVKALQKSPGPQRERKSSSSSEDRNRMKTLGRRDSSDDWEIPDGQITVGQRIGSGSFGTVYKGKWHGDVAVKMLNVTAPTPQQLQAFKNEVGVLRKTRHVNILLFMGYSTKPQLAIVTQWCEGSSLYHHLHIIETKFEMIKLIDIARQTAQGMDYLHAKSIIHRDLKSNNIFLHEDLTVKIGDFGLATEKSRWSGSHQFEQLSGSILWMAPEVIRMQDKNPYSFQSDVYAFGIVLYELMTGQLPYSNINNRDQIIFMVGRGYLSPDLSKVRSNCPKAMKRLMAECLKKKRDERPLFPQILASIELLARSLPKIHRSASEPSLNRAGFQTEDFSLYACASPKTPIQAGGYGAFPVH

Chain of Cdc37 (Q16543 2-378): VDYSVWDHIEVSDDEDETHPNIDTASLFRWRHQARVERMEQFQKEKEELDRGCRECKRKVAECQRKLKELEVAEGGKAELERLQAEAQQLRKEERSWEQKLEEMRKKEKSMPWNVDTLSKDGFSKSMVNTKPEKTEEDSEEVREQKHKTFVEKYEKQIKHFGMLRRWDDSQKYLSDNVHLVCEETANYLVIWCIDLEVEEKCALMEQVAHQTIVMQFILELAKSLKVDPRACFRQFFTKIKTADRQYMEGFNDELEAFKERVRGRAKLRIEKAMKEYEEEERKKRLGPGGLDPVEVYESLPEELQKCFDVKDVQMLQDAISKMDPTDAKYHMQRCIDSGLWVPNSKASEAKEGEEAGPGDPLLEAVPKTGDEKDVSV
Chain of B-Raf (Homo sapiens) (P15056 2-766): as the sequence (P15056 2-766 V600E) above, with E599V counted along it

Kd (B-Raf (Homo sapiens)): 1000 nM
Kd [1]: 400 nM
Substance: Cdc37 (from UniProt Q16543)
